# Literature values as cited in patent publication US11707610B2, “Ingestible device for delivery of therapeutic agent to the gastrointestinal tract” (BIORA THERAPEUTICS, INC., priority 2019, dated 2023).
# Where two headings read alike, the source gives them in different places.
# Tests used:
# [1] = for Approved Dosing Info: Bio Avail: Table 16, approved injection, Admin SC; for bioavailability: by SC injection
# [2] = self-administration of 360,000 units, medical observation
substance,measurement,setting,value
certolizumab-pegol [Cimzia ®],Storage temperature: time at room temp,room temp,2 hrs at
adalimumab,Approved Dosing Info: Bio Avail,[1],64%
same,bioavailability,[1],64%
same,bioavailability,[1]; listed as Adalimumab,approximately 64%
same,half-life,[1]; in vivo,approximately 2 weeks
same,primary mode of elimination,[1]; in vivo,intracellular catabolism
semaglutide [compound 4],Approved Dosing Info: Bio Avail,[1],89%
etanerecpt [Embrel ®],Storage temperature: time at 25° C.,25° C.,14 days
infliximab [Remicade ®],Storage temperature: time at 30° C.,30° C.,to 12 months
Dalteparin,outcome of overdose,[2],no notable sequelae
same,stability at room temperature,room temperature,stable
same,bioavailability,[1],approximately 87%
same,primary mode of elimination,[1]; in vivo,kidneys
Human Growth Hormone [Genotropin ®],Storage temperature: time after reconstitution,"2-8° C., after reconstitution",2-8 °C 4 weeks
